Data from patent publication CN115819568A.

Target: EV A71病毒样颗粒(VLP) (Enterovirus A71)
Assay: sandwich ELISA: rabbit anti-EV A71 VLP serum as capture, VLP titrated, antibody 1.2 ng/ul as detector, positive at OD450>0.15

B1: 肠道病毒A71单克隆抗体 1G10 (antibody, V domains shown)
VH: EVKLVESGGGLVKPGGSLKLSCAASGFTFSSYVMSWVRQTPEKRLEWVASISNGGSTFYPDSVKGRLTISRDNARNILYLQMSSLRSEDTAMYYCARAYGNDWYFDVWGAGTTVTVSS
VL: DIQMTQTTSSLSASLGDRVTISCRASQDISNYLNWYQQKPDGTVKLLIYYTSRLNSGVPSRFSGSGSGTDYSLTISNLEEEDIATYFCQQGNTAWTFGGGTKLEIKR
最低检出限度: 3.12 ng/mL
